According to patent US20160208233A1 (Harvard, published 2016):

Experiments:
Abz-LPETGK(Dnp)-CONH2 = molecular target: T1, Abz-LPETGK(Dnp)-CONH2
T1 chain: LPETGK

Gly-Gly-Gly-COOH = molecular target: T2, Gly-Gly-Gly-COOH
T2 chain: GGG

Abz-LAETGK(Dnp)-CONH2 = molecular target: T3, Abz-LAETGK(Dnp)-CONH2
T3 chain: LAETGK

Abz-LPESGK(Dnp)-CONH2 = molecular target: T4, Abz-LPESGK(Dnp)-CONH2
T4 chain: LPESGK

B1: eSrtA(2A-5) (protein)
chain: QAKPQIPKDKSKVAGYIEIPDADIKEPVYPGPATREQLNHGVSFHEENESLDDQNISIAGHTFIDRPNYQFTNLKAAKIGSMVYFKVGNETRKYKMTSIRNVRPTAVEVLDEQKGKDKQLTLVTCDDYNEETGVWETRKIFVATEVK
- Km, LxExG (Abz-LPETGK(Dnp)-CONH2): 4900 µM
- kcat/Km (Hz/M) (Abz-LPETGK(Dnp)-CONH2): 28.1 Hz/M
- Km, GGG (uM); with LAETG peptide (Gly-Gly-Gly-COOH): 2810 µM
- Km, LxExG (Abz-LAETGK(Dnp)-CONH2): 433 µM
- increase in kcat/Km, LAETG substrate against LPETG substrate (Abz-LAETGK(Dnp)-CONH2): from ˜40-fold (2Ar4) to ˜125-fold (2Ar5) increase in kcat/Km
- increased affinity for the LAETG substrate as compared to the LPETG substrate (Abz-LAETGK(Dnp)-CONH2): from ˜61 (2A.6c) to ˜116fold (2Ar5)
- kcat/Km (Hz/M) (Abz-LAETGK(Dnp)-CONH2): 3260 Hz/M
- specificity (relative cat. Efficiency, fold), LAETG over LPETG (Abz-LAETGK(Dnp)-CONH2): 116 fold

B2: eSrtA(2A-6) (protein)
chain: QAKPQIPKDKSKVAGYIEIPDADIKEPVYPGPATREQLNRGVSFHEENESLDDQNISIAGHTFIDRPNYQFTNLKAAKVGSMVYFKVGNETRKYKMTSIRNVRPTAVEVLDEQKGKDKQLTLVTCDDYNEETGVWETRKIFVATEVK
- Avg KM (Abz-LPETGK(Dnp)-CONH2): 3400 µM
- Avg kcat/KM (Abz-LPETGK(Dnp)-CONH2): 47.7
- Km, LxExG (Abz-LPETGK(Dnp)-CONH2): 3290 µM
- kcat/Km (Hz/M) (Abz-LPETGK(Dnp)-CONH2): 47.8 Hz/M
- Avg KM (uM) for GGG; with LAETG (2A) peptide (Gly-Gly-Gly-COOH): 1110 µM
- Avg kcat/KM for GGG; with LAETG (2A) peptide (Gly-Gly-Gly-COOH): 1610
- Km, GGG (uM); with LAETG peptide (Gly-Gly-Gly-COOH): 1040 µM
- Avg KM (Abz-LAETGK(Dnp)-CONH2): 665 µM
- Avg kcat/KM (Abz-LAETGK(Dnp)-CONH2): 3930
- Km, LxExG (Abz-LAETGK(Dnp)-CONH2): 608 µM
- Specificity (relative catalytic efficiency, fold), LAETG over LPETG (Abz-LAETGK(Dnp)-CONH2): 82.4 fold
- kcat/Km (Hz/M) (Abz-LAETGK(Dnp)-CONH2): 4130 Hz/M
- specificity (relative cat. Efficiency, fold), LAETG over LPETG (Abz-LAETGK(Dnp)-CONH2): 86.4 fold

B3: eSrtA(4S-5) (protein)
chain: QAKPQIPKDKSKVAGYIEIPDADIKEPVYPGPATREQLDRGVSFVEENESLDDQNISITGHTAIDRPNYQFTNLRAAKKGSMVYFKVGNETRKYKMTSIRNVKPTAVEVLDEQKGKDKQLTLVTCDDYNEETGVWETRKIFVATEVK
- Avg KM (Abz-LPETGK(Dnp)-CONH2): 11.7 µM
- Avg kcat/KM (Abz-LPETGK(Dnp)-CONH2): 530
- Km, LxExG (Abz-LPETGK(Dnp)-CONH2): 12.2 µM
- kcat/Km (Hz/M) (Abz-LPETGK(Dnp)-CONH2): 513 Hz/M
- Km,GGG (uM); with LPESG peptide (Gly-Gly-Gly-COOH): 26700 µM
- Avg KM (Abz-LPESGK(Dnp)-CONH2): 76 µM
- Avg kcat/KM (Abz-LPESGK(Dnp)-CONH2): 5130
- Km, LxExG (Abz-LPESGK(Dnp)-CONH2): 76 µM
- Specificity, LPESG over LPETG (Abz-LPESGK(Dnp)-CONH2): 9.67 fold
- increase in kcat/Km, LPESG substrate against LPETG substrate (Abz-LPESGK(Dnp)-CONH2): from ˜2-fold (4Sr5) to ˜5-fold (4Sr6a) increase in kcat/Km
- increased affinity for the LPESG substrate as compared to the LPETG substrate (Abz-LPESGK(Dnp)-CONH2): from ˜2-fold (4Sr6b) to ˜8-fold (4Sr5)
- kcat/Km (Hz/M) (Abz-LPESGK(Dnp)-CONH2): 5130 Hz/M
- specificity (relative cat. Efficiency, fold), LPESG over LPETG (Abz-LPESGK(Dnp)-CONH2): 10 fold

B4: eSrtA(4S-6) (protein)
chain: QAKPQIPKDKSKVAGYIEIPDADIKEPVYPGPATREQLDRGVSFVEENESLDDQNISISGHTAIDRPNYQFTNLGAAKKGSMVYFKVGNETRKYKMTSIRNVKPTAVEVLDEQKGKDKQLTLVTCDDYNVETGVWETRKIFVATEVK
- Avg KM (Abz-LPETGK(Dnp)-CONH2): 1040 µM
- Avg kcat/KM (Abz-LPETGK(Dnp)-CONH2): 930
- Km, LxExG (Abz-LPETGK(Dnp)-CONH2): 1290 µM
- kcat/Km (Hz/M) (Abz-LPETGK(Dnp)-CONH2): 854 Hz/M
- Avg KM (uM) for GGG; with LPESG (4S) peptide (Gly-Gly-Gly-COOH): 13100 µM
- Avg kcat/KM for GGG; with LPESG (4S) peptide (Gly-Gly-Gly-COOH): 153
- Km,GGG (uM); with LPESG peptide (Gly-Gly-Gly-COOH): 4950 µM
- Avg KM (Abz-LPESGK(Dnp)-CONH2): 125 µM
- Avg kcat/KM (Abz-LPESGK(Dnp)-CONH2): 7530
- Km, LxExG (Abz-LPESGK(Dnp)-CONH2): 102 µM
- Specificity, LPESG over LPETG (Abz-LPESGK(Dnp)-CONH2): 8.09 fold
- increase in kcat/Km, LPESG substrate against LPETG substrate (Abz-LPESGK(Dnp)-CONH2): from ˜2-fold (4Sr5) to ˜5-fold (4Sr6a) increase in kcat/Km
- kcat/Km (Hz/M) (Abz-LPESGK(Dnp)-CONH2): 9390 Hz/M
- specificity (relative cat. Efficiency, fold), LPESG over LPETG (Abz-LPESGK(Dnp)-CONH2): 11 fold

B5: 4S.6C (protein)
chain: QAKPQIPKDKSKVAGYIEIPDADIKEPVYPGPATREQLDRGVSFVEENESLDDQNISITGHTAIDRPNYQFTNLRAAKKGSMVYFKVGNETRKYKMTSIRNVKPTAVEVLDEQKGKDKQLTLVTCDDYNFETGVWETRKIFVATEVK
- Km, LxExG (Abz-LPETGK(Dnp)-CONH2): 16.1 µM
- kcat/Km (Hz/M) (Abz-LPETGK(Dnp)-CONH2): 235 Hz/M
- Km,GGG (uM); with LPESG peptide (Gly-Gly-Gly-COOH): 36000 µM
- Km, LxExG (Abz-LPESGK(Dnp)-CONH2): 156 µM
- kcat/Km (Hz/M) (Abz-LPESGK(Dnp)-CONH2): 4350 Hz/M
- specificity (relative cat. Efficiency, fold), LPESG over LPETG (Abz-LPESGK(Dnp)-CONH2): 18.5 fold

B6: eSrtA(4S-9) T118A (protein)
chain: QAKPQIPKDKSKVAGYIEIPDADIKEPVYPGPATREQLDRGVCFVEENESLDDQNISIAGHTAIDRPNYQFTNLRAAKKGSMVYLKVGNETRKYKMTSIRNVKPTAVEVLDEQKGKDKQLTLVTCDDYNFETGVWETRKIFVATEVK
- lowering of specificity for LPESG over LPETG against eSrtA(4S-9) (Abz-LPESGK(Dnp)-CONH2): by 75-fold for the T118A mutant

B7: eSrtA(4S-9) V104A (protein)
chain: QAKPQIPKDKSKVAGYIEIPDADIKEPVYPGPATREQLDRGVCFAEENESLDDQNISITGHTAIDRPNYQFTNLRAAKKGSMVYLKVGNETRKYKMTSIRNVKPTAVEVLDEQKGKDKQLTLVTCDDYNFETGVWETRKIFVATEVK
- lowering of specificity for LPESG over LPETG against eSrtA(4S-9) (Abz-LPESGK(Dnp)-CONH2): lowering specificity for LPESG (SEQ ID NO: 3) over LPETG (SEQ ID NO: 4) by 14-fold for the V104A mutant

B8: 4S.6B (protein)
chain: QAKPQIPKDKSKVAGYIEIPDADIKEPVYPGPATREQLDRGVSFVEENESLDDQNISISGHTAIDRPNYQFTNLPAAKKGSMVYFKVGNETRKYKMTSIRNVKPTAVEVLDEQKGKDKQLTLVTCDDYNPETGVWETRKIFVATEVK
- Km, LxExG (Abz-LPETGK(Dnp)-CONH2): 238 µM
- kcat/Km (Hz/M) (Abz-LPETGK(Dnp)-CONH2): 4550 Hz/M
- Km,GGG (uM); with LPESG peptide (Gly-Gly-Gly-COOH): 15700 µM
- Km, LxExG (Abz-LPESGK(Dnp)-CONH2): 312 µM
- increased affinity for the LPESG substrate as compared to the LPETG substrate (Abz-LPESGK(Dnp)-CONH2): from ˜2-fold (4Sr6b) to ˜8-fold (4Sr5)
- kcat/Km (Hz/M) (Abz-LPESGK(Dnp)-CONH2): 4140 Hz/M
- specificity (relative cat. Efficiency, fold), LPESG over LPETG (Abz-LPESGK(Dnp)-CONH2): 0.91 fold

B9: eSrtA(4S-9) V182I (protein)
chain: QAKPQIPKDKSKVAGYIEIPDADIKEPVYPGPATREQLDRGVCFVEENESLDDQNISITGHTAIDRPNYQFTNLRAAKKGSMVYLKVGNETRKYKMTSIRNVKPTAVEVLDEQKGKDKQLTLITCDDYNFETGVWETRKIFVATEVK
- activity and selectivity on LPESG and LPETG (kcat/Km) (Abz-LPESGK(Dnp)-CONH2): Reversion of V182 in eSrtA(4S-9) preserved selectivity but decreased overall activity
